Assay results as given in patent US20260055430, “[…] WITH ALTERED […] ACTIVITY” (Flagship Pioneering Innovations VI, LLC, published 2026).

Legend:
[1] = system: Int22 (Integrase 1207); assay: cell_activity; settings: ~500 bp region template
[2] = system: Int17 (Integrase 1206); assay: cell_activity; settings: ~500 bp region template
[3] = system: Int171 (Integrase 450); assay: cell_activity; settings: ~500 bp region template
[4] = system: Int138 (Integrase 1116); assay: cell_activity; settings: HEK293T, template with ~500 bp region containing attP; attP from Table 2
[5] = system: Int30 (Integrase 436); assay: cell_activity; settings: ~500 bp region template
[6] = molecular target: T1, Int94 (Integrase 1219) (UniProt A7GVM1); assay: cell_activity; settings: ~500 bp region template
T1 sequence: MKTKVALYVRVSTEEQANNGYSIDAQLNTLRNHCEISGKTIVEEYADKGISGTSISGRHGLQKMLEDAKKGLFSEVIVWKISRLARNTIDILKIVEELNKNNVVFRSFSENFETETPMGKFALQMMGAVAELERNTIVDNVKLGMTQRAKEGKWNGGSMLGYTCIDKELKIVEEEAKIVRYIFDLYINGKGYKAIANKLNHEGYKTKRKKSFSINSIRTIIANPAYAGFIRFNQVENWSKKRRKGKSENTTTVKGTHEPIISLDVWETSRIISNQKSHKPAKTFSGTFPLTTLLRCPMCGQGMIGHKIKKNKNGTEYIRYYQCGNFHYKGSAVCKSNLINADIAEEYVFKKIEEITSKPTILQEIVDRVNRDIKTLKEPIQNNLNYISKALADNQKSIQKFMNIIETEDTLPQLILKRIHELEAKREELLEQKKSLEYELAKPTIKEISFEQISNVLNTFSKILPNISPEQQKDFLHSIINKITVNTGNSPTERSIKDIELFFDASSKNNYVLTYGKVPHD

[7] = system: Int182 (Integrase 1227); assay: cell_activity; settings: ~500 bp region template
[8] = system: Int104 (Integrase 1222); assay: cell_activity; settings: ~500 bp region template
[9] = system: Int29/Int105 (Integrase 477); assay: cell_activity; settings: Int29; same accession as Int105 gave 0.77
[10] = system: Int106 (Integrase 1223); assay: cell_activity; settings: ~500 bp region template
[11] = molecular target: T2, Int60 (Integrase 27) (UniProt Q858X3 Q858X3:1-594); assay: cell_activity; ~500 bp region template
T2 sequence: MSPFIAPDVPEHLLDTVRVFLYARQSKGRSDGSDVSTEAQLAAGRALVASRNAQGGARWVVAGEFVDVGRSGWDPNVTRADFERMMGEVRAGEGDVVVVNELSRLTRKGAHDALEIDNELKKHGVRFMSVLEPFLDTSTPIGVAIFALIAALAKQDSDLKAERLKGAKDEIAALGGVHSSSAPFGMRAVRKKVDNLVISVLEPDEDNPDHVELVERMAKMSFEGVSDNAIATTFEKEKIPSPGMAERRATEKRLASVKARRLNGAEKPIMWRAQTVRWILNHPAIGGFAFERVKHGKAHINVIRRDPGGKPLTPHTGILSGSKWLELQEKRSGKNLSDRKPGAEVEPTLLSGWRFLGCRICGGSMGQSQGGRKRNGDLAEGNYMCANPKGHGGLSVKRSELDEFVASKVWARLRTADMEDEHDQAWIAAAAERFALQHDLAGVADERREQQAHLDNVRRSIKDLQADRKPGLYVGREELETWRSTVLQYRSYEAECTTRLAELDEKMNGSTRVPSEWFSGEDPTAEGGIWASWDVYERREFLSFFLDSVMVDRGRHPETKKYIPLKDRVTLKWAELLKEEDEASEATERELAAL

[12] = molecular target: T3, Int192 (Integrase 165) (UniProt C9DC17 C9DC17:1-507); assay: cell_activity; ~500 bp region template
T3 sequence: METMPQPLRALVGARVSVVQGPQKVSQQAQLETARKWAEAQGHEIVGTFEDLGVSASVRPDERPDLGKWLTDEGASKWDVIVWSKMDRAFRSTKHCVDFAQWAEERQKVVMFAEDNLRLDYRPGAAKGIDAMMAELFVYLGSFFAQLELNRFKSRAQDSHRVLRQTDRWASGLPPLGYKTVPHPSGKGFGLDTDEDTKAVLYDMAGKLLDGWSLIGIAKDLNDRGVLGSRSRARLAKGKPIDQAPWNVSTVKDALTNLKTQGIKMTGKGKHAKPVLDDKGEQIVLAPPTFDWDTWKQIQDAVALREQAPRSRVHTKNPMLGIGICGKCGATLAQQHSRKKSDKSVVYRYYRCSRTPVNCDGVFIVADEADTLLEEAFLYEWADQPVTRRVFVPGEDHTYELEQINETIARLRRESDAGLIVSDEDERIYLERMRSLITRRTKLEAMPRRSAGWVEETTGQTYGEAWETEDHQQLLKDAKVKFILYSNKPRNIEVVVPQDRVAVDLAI

[13] = molecular target: T4, Int103 (Integrase 1221) (UniProt Q928V6 Q928V6:1-452); assay: cell_activity; ~500 bp region template
T4 sequence: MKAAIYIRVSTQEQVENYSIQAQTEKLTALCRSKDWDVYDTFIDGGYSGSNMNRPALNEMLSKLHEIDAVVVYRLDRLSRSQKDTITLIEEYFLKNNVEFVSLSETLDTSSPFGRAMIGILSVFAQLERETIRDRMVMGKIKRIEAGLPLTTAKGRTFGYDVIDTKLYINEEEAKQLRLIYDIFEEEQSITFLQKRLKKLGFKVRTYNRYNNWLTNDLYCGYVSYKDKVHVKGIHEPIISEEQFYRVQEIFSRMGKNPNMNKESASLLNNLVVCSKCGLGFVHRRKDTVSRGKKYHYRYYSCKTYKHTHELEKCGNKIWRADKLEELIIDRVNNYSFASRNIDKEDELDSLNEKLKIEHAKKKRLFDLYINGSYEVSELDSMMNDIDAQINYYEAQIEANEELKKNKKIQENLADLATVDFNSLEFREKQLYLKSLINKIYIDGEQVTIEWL

AAAAGAATCCAAATTATCGTACTTTAACATAGTGAATACTGTCCATCATGTATAAAAGTACG (double strand) [1207 attP]
activity [1]: 0.16 % GFP+

GTTAGGTGTATATCATACCTAACGCAATTCATTACATCACATATGTTATACACCTACTTTAA (double strand) [1206 attP]
activity [2]: 0.123 % GFP+

TATTAGTATAGAAGAAAGCTCTCAGCACACGTGGAGTGTGTTGCTCTCTGCTCGTAAAGCCT (double strand) [450 attP]
activity [3]: 0.16 % GFP+

TGTAGTAAGTATCTTAATATACAGCTTTATCTGTTTTTTAAGATACTTACTACTTT (double strand) [1116 attP]
activity [4]: 27.6 % GFP+

ATTTTAGGTATATGATTTTGTTTATTAGTGTAAATAACACTATGTACCTAAAAT (double strand) [436 attP]
activity [5]: 10.1 % GFP+

CAATAACGGTTGTATTTGTAGAACTTGACCAGTTGTTTTAGTAACATAAATACAACTCCGAATA (double strand) [1219 attP]
activity [6]: 0.23 % GFP+

AAATATAACCTGTGTATTGAAACAAGGTGCTGATAAAACCCTTTCATAAACACAAGTAAATA (double strand) [1227 attP]
activity [7]: 0.22 % GFP+

TTCCTCGTTTTCTCTCGTTGGACGGAAACGAATCGAGAAA (double strand) [1222 attP]
activity [8]: 0.58 % GFP+

TTCCTCGTTTTCTCTCGTTGGAAGAAGAAGAAACGAGAAA (double strand) [477 attP]
activity [9]: 0.91 % GFP+

CAATGAAAAACTAGGCATGTAGAAGTTGTTTGT (double strand) [1223 attP]
activity [10]: 1.77 % GFP+

B1: 27 attP (dsDNA)
DNA 1: GGTGCTGGGTTGTTGTCTCTGGACAGTGATCCATGGGAAACTACTCAGCACC
DNA 2: GGTGCTGAGTAGTTTCCCATGGATCACTGTCCAGAGACAACAACCCAGCACC
activity [11]: 0.17 % GFP+

B2: 165 attP (dsDNA)
DNA 1: TAGTTTCCAATGTTACAGGAACTGCTGGCAGAATCCAACACATTGGAAGTCG
DNA 2: CGACTTCCAATGTGTTGGATTCTGCCAGCAGTTCCTGTAACATTGGAAACTA
activity [12]: 0.57 % GFP+

B3: 1221 attP (dsDNA)
DNA 1: GTTTAGTATCTCGTTATCTCTCGTTGGAGGGAGAAGAAACGGGATACCAAAA
DNA 2: TTTTGGTATCCCGTTTCTTCTCCCTCCAACGAGAGATAACGAGATACTAAAC
activity [13]: 0.22 % GFP+
